Test results from the Immune Epitope Database (IEDB).

Assays:
Test in all cases: IEDB peptide-MHC binding, purified MHC/competitive/radioactivity; filed as Kd, often an IC50 or EC50 that approximates it; ≥ and ≤ were set here for values at or beyond the usual limits of such assays
[1] = biological target: HLA-A*03:01
[2] = biological target: HLA-A*11:01
[3] = biological target: HLA-A*31:01
[4] = biological target: HLA-A*33:01
[5] = biological target: HLA-A*68:01
[6] = source organism: Vaccinia virus WR
[7] = source organism: Mammarenavirus mopeiaense
[8] = source organism: Dengue virus 4 Philippines/H241/1956
[9] = source organism: SARS coronavirus Tor2
[10] = source organism: Dengue virus 2 Jamaica/1409/1983
[11] = source organism: Dengue virus 4 Dominica/814669/1981
[12] = source organism: Dengue virus 3 Martinique/1243/1999
[13] = source organism: Dengue virus 1 Brazil/97-11/1997
[14] = source organism: Dengue virus 4 Thailand/0348/1991

Sequence	Kd [1, 6] [nM]	Kd [2, 6] [nM]	Kd [3, 6] [nM]	Kd [4, 6] [nM]	Kd [5, 6] [nM]	further results
KAIEKDRLDK	12600	1200	≥ 21800	≥ 70000	4730	
KASMLEKYK	4040	110	181	≥ 39200	2850	
KCFGNTAIAK						Kd [1, 7]: 195 nM; Kd [2, 7]: 7370 nM; Kd [3, 7]: 528 nM; Kd [4, 7]: 3380 nM; Kd [5, 7]: 7870 nM
KSKQDRSDGY	≥ 35300	≥ 69800	≥ 70000	≥ 70000	≥ 70200	
KSMFWDGMDY	5.79	1.75	77.2	≥ 66200	511	
KSRRLNLFSK	640	1090	647	≥ 70000	≥ 70200	
KVASAGISYK						Kd [1, 8]: 3.14 nM; Kd [2, 8]: 22.7 nM
KVKTELVMDK	1330	409	120	≥ 70000	≥ 48600	
KVVDTFISY	7.9	4.98	1170	12300	3380	
LALTDVEKR	≥ 78000	12300	209	≥ 73300	162	
LAMDEFIQR						Kd [1, 9]: ≥ 78000 nM; Kd [2, 9]: 2390 nM; Kd [3, 9]: 362 nM; Kd [4, 9]: 1450 nM; Kd [5, 9]: 612 nM
LTTLSRTSKK						Kd [2, 10]: 1860 nM
MIKMFSQIDR	2250	3790	2.43	45.3	1.6	
MMKLGISPSK	11.5	27.1	382	10600	81.1	
MQNCLLRLK						Kd [1, 9]: 98.3 nM; Kd [2, 9]: 17.7 nM; Kd [3, 9]: 13.1 nM; Kd [4, 9]: 12100 nM; Kd [5, 9]: 1370 nM
MTLMKGASRR						Kd [3, 11]: 81.9 nM; Kd [4, 11]: 68.5 nM; Kd [5, 11]: 39.7 nM
NAISSRVDR	≥ 78000	≥ 37100	1280	96	14.9	
NFLKEQHCQK						Kd [1, 9]: 7280 nM; Kd [2, 9]: 13300 nM; Kd [3, 9]: 1470 nM; Kd [4, 9]: 1220 nM; Kd [5, 9]: ≥ 36400 nM
NLLDSYFVVK						Kd [1, 9]: 5370 nM; Kd [2, 9]: 1870 nM; Kd [3, 9]: 7220 nM; Kd [4, 9]: 4590 nM; Kd [5, 9]: 2350 nM
NLTDTNFKK	1220	658	9070	4430	27	
NMLKRERNR						Kd [4, 10]: 79 nM
NVHEHINDQK	4050	18400	≥ 70000	≥ 29200	4.38	
PLIDIIRKR	≥ 45700	≥ 48100	6250	1020	974	
PTFAAGLLLR						Kd [5, 10]: 837 nM

Sequence	Kd [1, 6] [nM]	Kd [2, 6] [nM]	Kd [3, 6] [nM]	Kd [4, 6] [nM]	Kd [5, 6] [nM]	further results
PVNQFTGYLK						Kd [1, 9]: 5330 nM; Kd [2, 9]: 764 nM; Kd [3, 9]: ≥ 70000 nM; Kd [4, 9]: ≥ 61900 nM; Kd [5, 9]: 2260 nM
QFIKPVSDLY	≥ 70100	≥ 38300	≥ 46500	≥ 42600	1270	
QFNFNGHTY	5300	14200	565	≥ 64600	175	
QTVKPGNFNK						Kd [1, 9]: 2730 nM; Kd [2, 9]: 249 nM; Kd [3, 9]: 1510 nM; Kd [4, 9]: 10500 nM; Kd [5, 9]: 418 nM
RALKAYFTAK	12.4	26.5	38.8	16000	1950	
RFQPFQQFGR						Kd [1, 9]: 13500 nM; Kd [2, 9]: ≥ 35100 nM; Kd [3, 9]: 1.06 nM; Kd [4, 9]: 1300 nM; Kd [5, 9]: 540 nM
RINGIPQQH						Kd ([1]; source organism: Homo sapiens): 110 nM
RLGLVLDDYK	48.9	37.8	2220	≥ 70000	506	
RLPTFMTQK						Kd [1, 10]: 2.36 nM
RMLNILNRR						Kd [3, 10]: 2.42 nM
SALTLHWFR						Kd [3, 8]: 0.247 nM; Kd [4, 8]: 3.7 nM; Kd [5, 8]: 2.37 nM
SIMKSVGTGK						Kd [1, 12]: 8.3 nM; Kd [2, 12]: 20.5 nM
TFAAGLLLR						Kd [4, 10]: 68.1 nM
TIEEGRTLR						Kd [4, 13]: 382 nM
TMRCIGISNR						Kd [3, 10]: 3.66 nM; Kd [4, 10]: 14.1 nM
TTNIWLKLR						Kd [3, 10]: 2.64 nM; Kd [4, 10]: 7.25 nM
TVASAAQRR						Kd [5, 13]: 33.8 nM
TVMAFHLSTR						Kd [2, 14]: 69.4 nM; Kd [3, 14]: 5.92 nM; Kd [4, 14]: 21.3 nM; Kd [5, 14]: 4.43 nM
VLARWGTFKK						Kd [1, 12]: 18.3 nM
VTAASAAQRR						Kd [5, 12]: 42.4 nM
WSYYMATLK						Kd [1, 8]: 3.33 nM; Kd [2, 8]: 16.1 nM; Kd [5, 8]: 1.83 nM
YQNKVVKVLR						Kd [4, 8]: 446 nM
YVCKHTYVDR						Kd [3, 12]: 133 nM; Kd [5, 12]: 890 nM
YVSAIAQAK						Kd [5, 13]: 36.2 nM
